Test results from article PMC2387164, “A GATA4/WT1 cooperation regulates transcription of genes required for mammalian sex determination and differentiation”.

Assays:
[1] = target: WT1(+KTS) overexpressed in HeLa cells (mouse) (UniProt P22561)
[2] = target: T1, GATA4 (UniProt Q08369 1-441); test: competition; competitor of labeled GATA site 1; EMSA conditions as described previously (ref. 48); buffer, salt, pH and temperature not given; details: protein: ivt; 5' overhang 4 nt (GATC) both ends
[3] = target: T1, GATA4; test: EMSA; EMSA conditions as described previously (ref. 48); buffer, salt, pH and temperature not given; details: protein: ivt; label: 32P (as probe); 5' overhang 4 nt (GATC) both ends
[4] = target: WT1(+KTS) (mouse, UniProt P22561 1-449); test: EMSA; blocked by 10-fold excess self competitor; EMSA conditions as described previously (ref. 48); buffer, salt, pH and temperature not given; details: protein: ivt; label: 32P (as probe); 5' overhang 4 nt (GGAT on strand 1, GATC on strand 2)
Sequence of WT1(+KTS) (P22561 whole entry): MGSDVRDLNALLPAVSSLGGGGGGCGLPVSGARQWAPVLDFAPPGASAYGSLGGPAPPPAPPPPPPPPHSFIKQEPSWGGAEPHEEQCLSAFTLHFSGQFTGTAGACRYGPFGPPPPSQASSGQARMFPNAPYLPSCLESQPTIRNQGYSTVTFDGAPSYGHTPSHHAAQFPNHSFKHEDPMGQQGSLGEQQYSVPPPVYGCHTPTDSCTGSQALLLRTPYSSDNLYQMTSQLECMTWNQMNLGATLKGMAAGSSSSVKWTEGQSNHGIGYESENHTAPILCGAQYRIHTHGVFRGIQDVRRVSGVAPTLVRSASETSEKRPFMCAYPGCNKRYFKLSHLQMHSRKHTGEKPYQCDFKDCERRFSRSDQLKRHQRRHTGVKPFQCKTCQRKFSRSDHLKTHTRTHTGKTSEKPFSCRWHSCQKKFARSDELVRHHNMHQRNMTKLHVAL

[5] = target: WT1(-KTS) (mouse, UniProt P22561-4 1-446); test: as above; details: protein: ivt; label: 32P (as probe); 5' overhang 4 nt (GGAT on strand 1, GATC on strand 2)
Sequence of WT1(-KTS) (P22561 other isoform, or with tags, fused parts or gaps): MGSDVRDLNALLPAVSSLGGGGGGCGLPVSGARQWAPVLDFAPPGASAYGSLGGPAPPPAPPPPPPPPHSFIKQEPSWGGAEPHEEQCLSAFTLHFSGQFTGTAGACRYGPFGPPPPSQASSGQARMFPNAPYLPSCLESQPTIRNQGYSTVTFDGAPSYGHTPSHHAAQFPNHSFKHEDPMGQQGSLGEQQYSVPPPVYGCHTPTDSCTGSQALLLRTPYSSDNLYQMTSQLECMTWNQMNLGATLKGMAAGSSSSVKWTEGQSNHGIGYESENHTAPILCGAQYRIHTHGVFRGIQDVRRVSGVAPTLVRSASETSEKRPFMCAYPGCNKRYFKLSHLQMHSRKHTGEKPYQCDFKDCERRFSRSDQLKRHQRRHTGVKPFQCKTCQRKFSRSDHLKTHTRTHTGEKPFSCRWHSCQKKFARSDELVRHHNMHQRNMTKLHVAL

T1 sequence (Q08369 whole entry): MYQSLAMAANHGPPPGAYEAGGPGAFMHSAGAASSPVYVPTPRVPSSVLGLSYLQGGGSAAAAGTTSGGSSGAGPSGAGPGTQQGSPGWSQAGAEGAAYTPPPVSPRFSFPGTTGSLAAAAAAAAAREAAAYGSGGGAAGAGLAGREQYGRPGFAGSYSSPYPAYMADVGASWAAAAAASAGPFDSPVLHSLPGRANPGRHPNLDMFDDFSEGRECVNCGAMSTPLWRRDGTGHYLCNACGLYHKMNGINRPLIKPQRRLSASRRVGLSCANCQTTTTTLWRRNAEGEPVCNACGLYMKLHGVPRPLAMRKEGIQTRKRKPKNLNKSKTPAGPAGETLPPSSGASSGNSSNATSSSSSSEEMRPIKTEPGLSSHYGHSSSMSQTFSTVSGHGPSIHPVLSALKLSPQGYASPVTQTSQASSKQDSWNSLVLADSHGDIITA
Sequence of WT1(+KTS) overexpressed in HeLa cells (mouse) (P22561 whole entry): as the sequence (P22561 whole entry) above

Molecule: GATA4 overexpressed in HeLa cells (from UniProt P46152 1-440) (natural protein)
- luciferase reporter, -1090 bp mouse Sry promoter, co-transfected HeLa cells, fold activation over control [1]: 30 fold
- luciferase reporter, -1400 bp pig SRY promoter, co-transfected HeLa cells, fold activation over control [1]: 50 fold

B1: pig SRY GATA site 2 (dsDNA)
DNA 1: GATCCATTGGGTTATCTTGAATCA
DNA 2: GATCTGATTCATGATAACCCAATG
- binding result [2]: binds

B2: pig SRY GATA site 3 (dsDNA)
DNA 1: GATCCACATACTGATAATCATCAA
DNA 2: GATCTTGATGATTATCAGTATGTG
- binding result [2]: binds

B3: pig SRY GATA site 4 (dsDNA)
DNA 1: GATCCCCAAGGTTATCTGTTTTTA
DNA 2: GATCTAAAAACAGATAACCTTGGG
- binding result [2]: binds

B4: pig SRY GATA site 1 (dsDNA)
DNA 1: GATCCGCCTTATTATCATAATAAA
DNA 2: GATCTTTATTATGATAATAAGGCG
- binding result [3]: binds

B5: human AMH distal WT1 element (dsDNA)
DNA 1: GGATCACTGGGGAGGGAGATAGGA
DNA 2: GATCTCCTATCTCCCTCCCCAGTG
- binding result [4]: binds
- binding result [5]: binds
